Laboratory results from patent US20050287136A1 (Amgen, published 2005).

Columns and labels:
[1] = molecular target: T1, CTLA-4-IgG1 fusion protein (OM-CTLA4-IgG1, made in-house) (human); assay: selectivity ELISA, coated CTLA-4/Ig against B7.2/Ig
T1 construct: covalent dimer through cysteine 120 of CTLA-4; The marks for signal peptide (underline) and CTLA4 domain are lost in the text; also called CTLA-4-Ig fusion protein; human CTLA4-IgG

[2] = molecular target: T2, CTLA-4-Ig(G4) (Repligen, Inc.) (UniProt P16410 37-161, limits assumed); assay: competition ELISA (separate experiment), antibody with CTLA-4-Ig(G4) 0.3 nM on coated B7.2-Ig(G1)
[3] = molecular target: T1, CTLA-4-IgG1 fusion protein …; assay: selectivity ELISA, coated CTLA-4/Ig against hIgG
[4] = molecular target: T1, CTLA-4-IgG1 fusion protein …; assay: selectivity ELISA, coated CTLA-4/Ig against CD28/Ig
[5] = molecular target: T2, CTLA-4-Ig(G4) (Repligen, Inc.); assay: competition ELISA (separate experiment), antibody with CTLA-4-Ig(G4) 0.3 nM on coated B7.1-Ig(G1)
[6] = molecular target: T1, CTLA-4-IgG1 fusion protein …; assay: BIAcore, immobilised CTLA-4-Ig fusion, 878.7 RU
[7] = molecular target: T2, CTLA-4-Ig(G4) (Repligen, Inc.); assay: competition ELISA, antibody with CTLA-4-Ig(G4) 0.3 nM on coated B7.2-Ig(G1)
[8] = molecular target: T1, CTLA-4-IgG1 fusion protein …; assay: BIAcore, immobilised CTLA-4-Ig fusion, 397.8 RU
[9] = molecular target: T2, CTLA-4-Ig(G4) (Repligen, Inc.); assay: competition ELISA, antibody with CTLA-4-Ig(G4) 0.3 nM on coated B7.1-Ig(G1)
[10] = molecular target: T1, CTLA-4-IgG1 fusion protein …; assay: selectivity ELISA, coated CTLA-4/Ig against B7.2/Ig, antibody 1 ug/ml
[11] = molecular target: T1, CTLA-4-IgG1 fusion protein …; assay: selectivity ELISA, coated CTLA-4/Ig against CD44/Ig, antibody 1 ug/ml
[12] = molecular target: T1, CTLA-4-IgG1 fusion protein …; assay: BIAcore, immobilised CTLA-4-Ig fusion, 457.2 RU
[13] = molecular target: T1, CTLA-4-IgG1 fusion protein …; assay: BIAcore, immobilised CTLA-4-Ig fusion, 504.5 RU
[14] = molecular target: T1, CTLA-4-IgG1 fusion protein …; assay: selectivity ELISA, coated CTLA-4/Ig against CD28/Ig, antibody 1 ug/ml

T2 sequence (P16410 37-161 limits assumed): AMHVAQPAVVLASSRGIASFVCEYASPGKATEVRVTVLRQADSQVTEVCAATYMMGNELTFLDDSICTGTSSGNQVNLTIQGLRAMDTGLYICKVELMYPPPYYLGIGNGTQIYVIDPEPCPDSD
T1 sequence (chain, as listed by the source): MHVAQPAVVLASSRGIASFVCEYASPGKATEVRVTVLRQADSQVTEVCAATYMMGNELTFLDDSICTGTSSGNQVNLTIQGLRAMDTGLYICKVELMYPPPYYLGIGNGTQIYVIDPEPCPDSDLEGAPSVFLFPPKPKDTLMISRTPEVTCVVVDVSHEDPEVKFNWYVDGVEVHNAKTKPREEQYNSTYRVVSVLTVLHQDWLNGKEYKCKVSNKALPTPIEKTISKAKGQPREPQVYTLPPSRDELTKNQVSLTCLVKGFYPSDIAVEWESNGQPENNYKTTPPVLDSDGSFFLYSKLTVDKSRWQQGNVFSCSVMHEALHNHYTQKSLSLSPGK

B1: 11.2.1 (antibody, human IgG2, kappa, V domains shown)
VH: QVQLVESGGGVVQPGRSLRLSCAASGFTFSSYGMHWVRQAPGKGLEWVAVIWYDGSNKYYADSVKGRFTISRDNSKNTLYLQMNSLRAEDTAVYYCARDPRGATLYYYYYGMDVWGQGTTVTVSS
VL: DIQMTQSPSSLSASVGDRVTITCRASQSINSYLDWYQQKPGKAPKLLIYAASSLQSGVPSRFSGSGSGTDFTLTISSLQPEDFATYYCQQYYSTPFTFGPGTKVEIKR
notes: also called CT11.2.1
- selectivity ratio CTLA4/B7.2 [1]: > 500 :1
- IC50 [2]: 0.56 nM
- selectivity ratio CTLA4/hIgG [3]: > 500 :1
- selectivity ratio CTLA4/CD28 [4]: > 500 :1
- IC50 [5]: 0.81 nM

B2: 3.1.1 (antibody, human IgG2, V domains shown)
VH: QVQLVESGGGVVQPGRSLRLSCAASGFTFSSYGMHWVRQAPGKGLEWVAVIWYDGSNKYYADSVKGRFTISRDNSKNTLYLQMNSLRAEDTAVYYCARGARIITPCMDVWGQGTTVTVSS
VL: DIQMTQSPSSLSASVGDRVTITCRASQSINTYLIWYQQKPGKAPNFLISATSILQSGVPSRFRGSGSGTNFTLTINSLHPEDFATYYCQQSYSTPFTFGPGTKVDIK
modifications: chain 1 pos 1: pyroglutamate from Gln (FIG. 9: NH2-Blocked, pQ), written Q
notes: Fully human IgG2 kappa; VH DP-50, VK 012; also called CT3.1.1
- Ka [6]: 1.07e+10 M⁻¹
- Kd [6]: 0.093 nM
- koff [6]: 9.6e-05 s⁻¹
- kon [6]: 1.04e+06 M⁻¹ s⁻¹
- IC50 [7]: 0.45 nM
- Ka [8]: 4.4e+09 M⁻¹
- Kd [8]: 0.228 nM
- koff [8]: 0.000207 s⁻¹
- kon [8]: 910000 M⁻¹ s⁻¹
- IC50 [9]: 0.63 nM
- selectivity ratio CTLA4/B7.2 [10]: > 500 :1
- selectivity ratio CTLA4/CD44 [11]: > 500 :1
- Ka [12]: 4.4e+09 M⁻¹
- Kd [12]: 0.227 nM
- koff [12]: 0.000165 s⁻¹
- kon [12]: 730000 M⁻¹ s⁻¹
- Ka [13]: 5.5e+09 M⁻¹
- Kd [13]: 0.182 nM
- koff [13]: 0.000172 s⁻¹
- kon [13]: 950000 M⁻¹ s⁻¹
- selectivity ratio CTLA4/CD28 [14]: > 500 :1

B3: 4.10.2 (antibody, human IgG2, V domains shown)
VH: QVQLVESGGGVVQPGRSLRLSCVASGFIFSSHGIHWVRQAPGKGLEWVAVIWYDGRNKDYADSVKGRFTISRDNSKNTLYLQMNSLRAEDTAVYYCARVAPLGPLDYWGQGTLVTVSS
VL: EFVLTQSPGTLSLSPGERATLSCRASQSISSNFLAWYQQKPGQAPRLLIYRPSSRATGIPDSFSGSGSGTDFTLTISRLEPEDFALYYCQQYGTSPFTFGPGTKVDIK
modifications: chain 1 pos 1: pyroglutamate from Gln (FIG. 9: NH2-Blocked, pQ), written Q
notes: Fully human IgG2 kappa; VH DP-50, VK A27; also called CT4.10.2
- Ka [6]: 3.9e+09 M⁻¹
- Kd [6]: 0.254 nM
- koff [6]: 0.000253 s⁻¹
- kon [6]: 1e+06 M⁻¹ s⁻¹
- IC50 [7]: 1.5 nM
- IC50 [9]: 3.39 nM
- Ka [12]: 1.4e+09 M⁻¹
- Kd [12]: 0.721 nM
- koff [12]: 0.000505 s⁻¹
- kon [12]: 700000 M⁻¹ s⁻¹
- Ka [13]: 2.2e+09 M⁻¹
- Kd [13]: 0.455 nM
- koff [13]: 0.00043 s⁻¹
- kon [13]: 940000 M⁻¹ s⁻¹
